test: yeast display, Sf9 membrane polyspecificity reagent, FACS + sequencing; frameworks hold sequencing errors
Summary of the method: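 A nanobody's polyreactivity label depends on the gate it was sorted from. Yeast display cells were stained with 10% biotinylated, detergent-solubilized Sf9 membrane reagent for 1 hour at 4 °C, enriched on streptavidin microbeads and sorted by FACS. The low and high (top ~1%) gates were set on anti-HA fluorescence for expression and streptavidin fluorescence for reagent binding.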

| Sequence | polyreactivity (PSR sort gate) |
| --- | --- |
| QVQLVESGGGLVQAGGSLRLSCAASGFTFIYYAMGWYRQAPGKERELVAAISASGGSTYYADSVKGRFTISRDNAKNTVYLQMNSLKPEDTAVYYCAADALIYYKGSPDYYWGQGTQVTVSS | high polyreactivity |
| QVQLVESGGGLVQAGGSLRLSCAASGRTSDSYAMGWYRQAPGKERELVAVISRSGRTYYADSVKGRFTISRDNAKNTVYLQMNSLKPEDTAVYYCAAKWFRTWSGYWGQGTQVTVSS | high polyreactivity |
| QVQLVESGGGLVQAGGSLRLSCAASGITINFYAMGWYRQAPGKERELVAAITQSGGSTYYADSVKGRFTISRDNAKNTVYLQMNRLKPEDTAVYYCAAARTGHMYYWGQGTQVTVSS | high polyreactivity |
| QVQLVESGGGLVQAGGSLRLSCAASGSIFLLYAMGWYRQAPGKERELVAAMSRGGSTYADSVKGRFTISRDNAKNTVYLQMNSLKPEVTAVYYCAASDQYRWYVHRWEDPFYYWGQGTQVTVSS | low polyreactivity |
| QVQLVESGGGLVQAGGSLRLSCAASGIIFTYYAMGWDRQAPGKERELVARISSSGGRTYYADSVKGRFTISRDNAKNTVYLQMNSLKPEDTAVYYCAAAIVSYGRNDYWGQGTQVTVSS | high polyreactivity |
| QDQLVESGGGLVQAGGSLRLSCAASGRIFIVYAMGWYRQAPGKERELDAAISRNGGRTYYADSVKGRFTISRDNAKNSVDLQMNSLKPEDTSVYYCNSVALYPYTTYDYWGQGSQVTVSS | high polyreactivity |
| QVQLVESGGGLVQAGGSLRLSCAASGRTYNVMGWYRQAPGKERYLVAAITWGGGSTHYADSVKGRFTISRDNAKNTVYLQMISLKPEDTAVYYCAADLLYKSTRVDYWGQGTQVTVSS | low polyreactivity |
| QVQLVESGGGLVQAGGSLRLSCAASGRIFTPYVMGWYRQAPGKERELVARISWTGSSTYYADSVKGRFTISRDNAKNTVYLQMNSLKPEDTAVYYCAKRLTRFYTRLEYWGQGTQVTVSS | low polyreactivity |
| QVQLVESGGGLVQAGGSLRLSCAASGSIFTTNAMGWYRQAPGKERELVARIDRAGSTYYADSVKGRFTISRDNAKNTVYLQMNSLKPEDTSVYYCAVEAVLSRPYATKFDYWGQGTEVTVSS | low polyreactivity |
| QVQLVESGGGLVQAGGSLRLSCAASGSIFTWNVKGWYRQAPGKERELVAAISSGGSTNYADSVKGRFTISRDNAKNTVYLQMNSLKPEDTAVYYCATYFRVWYRSYDYWGQGTQVTVSS | high polyreactivity |
| QDQLVESGGGLVQAGGSLRLSCAASGFIFKYYAMGWYRQAPGKVRELVAVISISGGSTYYADSVKGRLTISRDNAKNTVYLQMNSLKPEDTAVYYCNVYWRRTSTLAFDYCGQGTQVTVSS | high polyreactivity |
| QVQLVESGVGLVQAGGSLRLSCAASGIIFKNYTRGWDRPAPWKEWELVAAISWRGGRTYYADSVKGRFTISRDNAKNTVYLQMNSLKPEDTAVYYCAKELYVSYRGGPWVDYWGQGTQVTVSS | high polyreactivity |
| QVQLVESGGGLVQAGGSLRLSCAASGRIFNLYAMGWYRQAPGKERELVAGISWSGGDTTYADSVKGRFTISRDNAKNTVYLQMNSLKPEDTAVYYCNKRAYLDYGGRGYNYWGQGTRVTVSS | low polyreactivity |
| QVQLVESGVGLVQAGGRLRLICAASGITFGPNALGWYRQAPGKERELVAAISWRGGSTYNADSVKGRFTISRDNGKNTVYLQMNSLKPEDTAVYYCAADLAYGAMVYWGQGTQVTVSS | low polyreactivity |
| QVQLVESGVGIVQAGRSHRVSCAASGSTYNPYAMGWYRQAPGKESELVARIRGSGGSTYYADSVKVRFTISRDNAKNPVFLHMNSQKPEDTAVYYCATDDYYLSRYRLVGYYSWGQGTQVTVSS | high polyreactivity |
| QVQLVESGGGLVQAGGSLRLSCAASGRTFRRYAMGWYRQAPGKERELVAASSRGANTNYADSVKGRFTISRDNAKNTFYLQMNSLKPEDTAVYYCNAKQAGYYFAFGYWGQGTQVTVSS | high polyreactivity |
| QVHLVESGGGLVQAGGSLRLSCAASGSIFSSNTMGWYRQATGKERELVAAISWSGGRTRYADSVKGRFTISRDNAKNTVYLQMNSLKPEDNAVYYCNAGTVASTLYDVRTHFDYWGQGTQVTVSS | low polyreactivity |
| QVQLVESGGGLVQAGGSLRLSCAASGSIFGRYVKGWYRQAPGKERELVATISSGGSTYYADSVKGRFTISRDNAKNTVYLQMNSLKPEDTAVYYCAASYSRFVDWIGDPGYDYWGQGTQVTVSS | low polyreactivity |
| QVQLVESGGGLVLAGGILRLSCAASGSTFYAYAMGWYRQAPGKERELVAAIDSGGSTYYADSVKGRFTISRDNAKNTVYLQMNSLKPEDTAVYYCAVRHRYTRAYWGRDYWGQGSQVTVSS | low polyreactivity |
| QVQLVESGGGLVQAVGSLRLSCAASVSTFRHYAMGWYRQAPGKERELVAAISSTGGSTYYADSVKGRFTISRDNAKNTVYLQMNSLKPEDTAVYYCAARRLYWGQGTQVTVSS | high polyreactivity |
| QVQLVESGGGLVQAGGSLRLSCAASGRTLVKYAMGWYRQAPGKERELVAAITQRGGITYYADSVKGRFTISRDNAKNTVYLQMNSLKPEDTAVYYFAASLYSYRSPYTFYYWGQGTQVTVSS | high polyreactivity |
| QVQLVESGGGLVQAGGSLRLSCAASGRSFWKYAMGWCRQAPGKERELVAAITSDGSTYYADSVKGRFTISRDNAKNTVYFQMNSLKPEDTADYYCAAQQWFEYDYWGQGTQVTVSS | low polyreactivity |
| QVQLVESGGGLVQAGGSLRLSCAPSRSTLNYYAMGWYRQAPGKERELVAAITWSGGSTSYADSVKGRFTISRDNAKNTVYLQMNSLKPEDTAVYYCATDFPTVQLYDTDWLSSDMGYWGQGTQVTVSS | low polyreactivity |
| QVQLVESGGGLVQAGGSLRLICAASGFTIYRYAMGWYRQAPGKERELVATIRRGGSTKYADSVKGRFTISRDNAKNTVYLQMNSLKPEDTAVYYCNARYYAAPDKYYYWGQGTQVTVSS | low polyreactivity |
| QVQLVESGVGLGQAGGSLRLSCAASGRIFSRYAMGWYRPAPGKERELVATITRRGGSTSYADSVKGRFTISRDNAKNTVFLQMNCLKPEDTAVYYCAAQSFYGIYYGKQDYDYWGQGTQVTVSS | high polyreactivity |
| QVQLVESGGGLVQAGGSLRLSCAASGSIFKSYAMGWYRQAPGKERELVAVISDSGSTYYADSVKGRFTISRDNAKNTVYLQKNSLKPEDTAVYYCRGRGRRNEYWGQGTQVTVSS | high polyreactivity |
| QVQLVESGGGLVQAGGSLRLSCAASGSIIRKYAMGWYRQAHGKERELVAAISRRTGNTYYADSVKGRFTISRDNAKNTVYLQMNSLKPEDTAVYYCAADYYSSSSWSEVDSWGQGTQVTVSS | high polyreactivity |
| QVQLVESGGGLVQAGGSLRLSCAASGSIFVYNAMGWYRQAPGKERELVASITWSGGRTYYADSVKGRFTNSRDNAQNTVYLQMNSLKPEDTAVYYCAADSPRGYDYWGQGTQVTVSS | high polyreactivity |
| QVQLVESGGGLVQAGGSLRLSCAASGFTLSRNAMGWYRQAPGKERELVAAISYSGARTYYADSVKGRFTISRDNAKNTVYLQMNRLKPEDTAVYYCAKVVPYPDYDYWGQGTQVTVSS | high polyreactivity |
| QVQLVESGGGLVQAGGSLRLSCAASVSTFGRYVMGWYRQAPGKERELVAAISKNAGSTYYADSVKGRFTISRDNAKNTVYVQMNSLKPEDTAVYYCAADWRTKGYDSLGQGTQVTVSS | high polyreactivity |

— the nanobody polyreactivity screen of Harvey et al. (2022)
